The results in this text go back to article doi:10.1101/2021.04.01.438122.

In the assay the target is human Angiotensin Converting Enzyme 2 (amino acids 19-615) fused to human IgG Fc (human) (UniProt Q9BYF1). The experiment in a line: SPR.

As to “SARS-CoV-2 receptor binding domain (RBD amino acids 330-532) with the Y489R mutation (domain or fragment)”, the reduction of binding against RBD-WT came out at 94%.
